Laboratory results from patent US20210292396A1.

Legend:
Assay in all cases: cell-based or functional assay
[1] = biological target: Env of HIV isolate CAP256.206.C9 (clade C) (HIV)
[2] = biological target: HIV Env of isolate 286.36 (HIV)
[3] = biological target: HIV Env of isolate CNE30 (HIV)
Envelope of SVA.MLV = biological target: Envelope of SVA.MLV
[4] = biological target: Env of HIV isolate DU172.17 (clade C) (HIV)
[5] = biological target: Env of HIV isolate P0402.c2.11 (clade G) (HIV)
[6] = biological target: Env of HIV isolate QH209.14M.A2 (clade A) (HIV)
[7] = biological target: HIV Env of isolate DU123.06 (HIV)
[8] = biological target: Env of HIV isolate A03349M1.vrc4a (clade D) (HIV)
[9] = biological target: HIV Env of isolate 0077.v1.c16 (HIV)
[10] = biological target: Env of HIV isolate 0815.v3.c3 (clade ACD) (HIV)
[11] = biological target: Env of HIV isolate 263-8 (clade AG) (HIV)
[12] = biological target: Env of HIV isolate 6322.v4.c1 (clade C) (HIV)
[13] = biological target: Env of HIV isolate Q23.17 (clade A) (HIV)
[14] = biological target: Env of HIV isolate T257-31 (clade AG) (HIV)
[15] = biological target: Env of HIV isolate SS1196.01 (clade B) (HIV)
[16] = biological target: Env of HIV isolate CNE19 (clade BC) (HIV)
[17] = biological target: Env of HIV isolate MB539.2B7 (clade A) (HIV)
[18] = biological target: Env of HIV isolate 247-23 (clade D) (HIV)
[19] = biological target: Env of HIV isolate C3347.c11 (clade AE) (HIV)
[20] = biological target: Env of HIV isolate BI369.9A (clade A) (HIV)
[21] = biological target: HIV Env of isolate 191821.E6.1 (HIV)
[22] = biological target: Env of HIV isolate BB201.B42 (clade A) (HIV)
[23] = biological target: Env of HIV isolate T278-50 (clade AG) (HIV)
[24] = biological target: Env of HIV isolate SC422.8 (clade B) (HIV)
[25] = biological target: HIV Env of isolate CH070.1 (HIV)
[26] = biological target: Env of HIV isolate 3589.v1.c4 (clade AC) (HIV)
[27] = biological target: Env of HIV isolate C2101.c1 (clade AE) (HIV)
[28] = biological target: Env of HIV isolate THRO.18 (clade B) (HIV)
[29] = biological target: Env of HIV isolate ZM135.10a (clade C) (HIV)
[30] = biological target: HIV Env of isolate 0013095-2.11 (HIV)
[31] = biological target: Env of HIV isolate 231965.c01 (clade D) (HIV)
[32] = biological target: Env of HIV isolate 286.36 (clade C) (HIV)
[33] = biological target: Env of HIV isolate 6535.3 (clade B) (HIV)
[34] = biological target: Env of HIV isolate ZM53.12 (clade C) (HIV)
[35] = biological target: HIV Env of isolate 57128.vrc15 (HIV)
[36] = biological target: Env of HIV isolate 6405.v4.c34 (clade D) (HIV)
[37] = biological target: Env of HIV isolate HXB2.DG (clade B) (HIV)
[38] = biological target: Env of HIV isolate Q769.h5 (clade A) (HIV)
[39] = biological target: HIV Env of isolate 6405.v4.c34 (HIV)
[40] = biological target: Env of HIV isolate Q168.a2 (clade AD) (HIV)
[41] = biological target: HIV Env of isolate SO18.18 (HIV)
[42] = biological target: Env of HIV isolate CNE56 (clade AE) (HIV)
[43] = biological target: Env of HIV isolate CNE59 (clade AE) (HIV)
[44] = biological target: HIV Env of isolate CH181.12 (HIV)
[45] = biological target: HIV Env of isolate CNE58 (HIV)
[46] = biological target: HIV Env of isolate ZM249.1 (HIV)
[47] = biological target: Env of HIV isolate 6545.v4.c1 (clade AC) (HIV)
[48] = biological target: Env of HIV isolate KNH1209.18 (clade A) (HIV)
[49] = biological target: HIV Env of isolate 25711-2.4 (HIV)

B1: ePGT121.18 (ePGT121.18.H1 VH and ePGT121.17.L1 VL) (antibody, V domains shown)
VH: QMQLQESGPGLVKPGETLSLTCSVSGASISSSYWSWLRETPGKGLEWIGYTHHSGDTNYAPSLKSRVHLGLHPSKNQVSLSLTSVTAADTAVYYCARTLHGRRIYGVVAFNEYYTYFYWPTWGKGTQVTVSS
VL: SDISVAPGETVRITCGGESIGSRAVQWYQHRPGQAPRLIIYNNQDRPPGIPERFSGSPDIDFGTTATLTISNVEAGDEATYYCHIWDSRRPTNWELGPGTTLTVL
IC50, pseudovirus neutralization [1]: 0.001 µg/mL
IC80, pseudovirus neutralization (M1) [2]: 0.003 µg/mL
IC80, pseudovirus neutralization (M2) [2]: 0.004 µg/mL
IC80, pseudovirus neutralization (M1) [3]: 0.013 µg/mL
IC80, pseudovirus neutralization (M2) [3]: 0.016 µg/mL
IC80, pseudovirus neutralization (M1) (Envelope of SVA.MLV): > 50 µg/mL
IC80, pseudovirus neutralization (M2) (Envelope of SVA.MLV): > 50 µg/mL
IC50, pseudovirus neutralization [4]: 0.003 µg/mL
IC50, pseudovirus neutralization [5]: 0.002 µg/mL
IC50, pseudovirus neutralization [6]: > 50 µg/mL
IC80, pseudovirus neutralization (M1) [7]: 0.006 µg/mL
IC80, pseudovirus neutralization (M2) [7]: 0.005 µg/mL
IC50, pseudovirus neutralization [8]: 0.002 µg/mL
IC80, pseudovirus neutralization (M1) [9]: > 50 µg/mL
IC80, pseudovirus neutralization (M2) [9]: > 50 µg/mL
IC50, pseudovirus neutralization [10]: 0.001 µg/mL
IC50, pseudovirus neutralization [11]: 0.004 µg/mL
IC50, pseudovirus neutralization [12]: > 50 µg/mL
IC50, pseudovirus neutralization [13]: 0.002 µg/mL
IC50, pseudovirus neutralization [14]: > 50 µg/mL
IC50, pseudovirus neutralization [15]: 0.002 µg/mL
IC50, pseudovirus neutralization [16]: 0.001 µg/mL
IC50, pseudovirus neutralization [17]: > 50 µg/mL
IC50, pseudovirus neutralization [18]: > 50 µg/mL
IC50, pseudovirus neutralization [19]: > 50 µg/mL
IC50, pseudovirus neutralization [20]: 0.001 µg/mL
IC80, pseudovirus neutralization (M1) [21]: 0.095 µg/mL
IC80, pseudovirus neutralization (M2) [21]: 0.105 µg/mL
IC50, pseudovirus neutralization [22]: 0.002 µg/mL
IC50, pseudovirus neutralization [23]: 1.17 µg/mL
IC50, pseudovirus neutralization [24]: 0.005 µg/mL
IC80, pseudovirus neutralization (M1) [25]: 0.002 µg/mL
IC80, pseudovirus neutralization (M2) [25]: 0.002 µg/mL
IC50, pseudovirus neutralization [26]: 0.252 µg/mL
IC50, pseudovirus neutralization [27]: > 50 µg/mL
IC50, pseudovirus neutralization [28]: > 50 µg/mL
IC50, pseudovirus neutralization [29]: 0.026 µg/mL
IC80, pseudovirus neutralization (M1) [30]: 4.21 µg/mL
IC80, pseudovirus neutralization (M2) [30]: 2.16 µg/mL
IC50, pseudovirus neutralization [31]: 9.17 µg/mL
IC50, pseudovirus neutralization [32]: 0.001 µg/mL
IC50, pseudovirus neutralization [33]: 0.001 µg/mL
IC50, pseudovirus neutralization [34]: 0.003 µg/mL
IC80, pseudovirus neutralization (M1) [35]: 0.009 µg/mL
IC80, pseudovirus neutralization (M2) [35]: 0.01 µg/mL
IC50, pseudovirus neutralization [36]: 0.001 µg/mL
IC50, pseudovirus neutralization [37]: 0.003 µg/mL
IC50, pseudovirus neutralization [38]: > 50 µg/mL
IC80, pseudovirus neutralization (M1) [39]: 0.004 µg/mL
IC80, pseudovirus neutralization (M2) [39]: 0.005 µg/mL
IC50, pseudovirus neutralization [40]: 2.93 µg/mL
IC80, pseudovirus neutralization (M1) [41]: 0.005 µg/mL
IC80, pseudovirus neutralization (M2) [41]: 0.007 µg/mL
IC50, pseudovirus neutralization [42]: > 50 µg/mL
IC50, pseudovirus neutralization [43]: > 50 µg/mL
IC80, pseudovirus neutralization (M1) [44]: 0.003 µg/mL
IC80, pseudovirus neutralization (M2) [44]: 0.004 µg/mL
IC80, pseudovirus neutralization (M1) [45]: 0.039 µg/mL
IC80, pseudovirus neutralization (M2) [45]: 0.033 µg/mL
IC80, pseudovirus neutralization (M1) [46]: 0.992 µg/mL
IC80, pseudovirus neutralization (M2) [46]: 0.874 µg/mL
IC50, pseudovirus neutralization [47]: > 50 µg/mL
IC50, pseudovirus neutralization [48]: 0.001 µg/mL
IC80, pseudovirus neutralization (M1) [49]: 0.005 µg/mL
IC80, pseudovirus neutralization (M2) [49]: 0.006 µg/mL

B2: ePGT121.18.17 (ePGT121.18.H17 VH and ePGT121.17.L1 VL) (antibody, V domains shown)
VH: QMQLQESGPGLVKPGETLSLTCSVSGASISSSYWSWLRETPGKGLEWIGYTHHSGDTNYAPSLKSRVTIGLDPSKNQVSLSLTSVTAADTAVYYCARTLHGRRIYGVVAFNEYYTYFYWPTWGKGTQVTVSS
VL: SDISVAPGETVRITCGGESIGSRAVQWYQHRPGQAPRLIIYNNQDRPPGIPERFSGSPDIDFGTTATLTISNVEAGDEATYYCHIWDSRRPTNWELGPGTTLTVL
IC50, pseudovirus neutralization [1]: 0.004 µg/mL
IC80, pseudovirus neutralization [2]: 0.006 µg/mL
IC80, pseudovirus neutralization [3]: 0.047 µg/mL
IC80, pseudovirus neutralization (Envelope of SVA.MLV): > 50 µg/mL
IC50, pseudovirus neutralization [4]: 0.007 µg/mL
IC50, pseudovirus neutralization [5]: 0.004 µg/mL
IC50, pseudovirus neutralization [6]: > 50 µg/mL
IC80, pseudovirus neutralization [7]: 0.013 µg/mL
IC50, pseudovirus neutralization [8]: 0.009 µg/mL
IC80, pseudovirus neutralization [9]: > 50 µg/mL
IC50, pseudovirus neutralization [10]: 0.005 µg/mL
IC50, pseudovirus neutralization [11]: 0.02 µg/mL
IC50, pseudovirus neutralization [12]: > 50 µg/mL
IC50, pseudovirus neutralization [13]: 0.006 µg/mL
IC50, pseudovirus neutralization [14]: > 50 µg/mL
IC50, pseudovirus neutralization [15]: 0.004 µg/mL
IC50, pseudovirus neutralization [16]: 0.003 µg/mL
IC50, pseudovirus neutralization [17]: > 50 µg/mL
IC50, pseudovirus neutralization [18]: > 50 µg/mL
IC50, pseudovirus neutralization [19]: > 50 µg/mL
IC50, pseudovirus neutralization [20]: 0.004 µg/mL
IC80, pseudovirus neutralization [21]: 0.727 µg/mL
IC50, pseudovirus neutralization [22]: 0.003 µg/mL
IC50, pseudovirus neutralization [23]: 1.2 µg/mL
IC50, pseudovirus neutralization [24]: 0.016 µg/mL
IC80, pseudovirus neutralization [25]: 0.007 µg/mL
IC50, pseudovirus neutralization [26]: 2.73 µg/mL
IC50, pseudovirus neutralization [27]: > 50 µg/mL
IC50, pseudovirus neutralization [28]: > 50 µg/mL
IC50, pseudovirus neutralization [29]: 0.145 µg/mL
IC80, pseudovirus neutralization [30]: 13.4 µg/mL
IC50, pseudovirus neutralization [31]: > 50 µg/mL
IC50, pseudovirus neutralization [32]: 0.003 µg/mL
IC50, pseudovirus neutralization [33]: 0.002 µg/mL
IC50, pseudovirus neutralization [34]: 0.015 µg/mL
IC80, pseudovirus neutralization [35]: 0.038 µg/mL
IC50, pseudovirus neutralization [36]: 0.004 µg/mL
IC50, pseudovirus neutralization [37]: 0.016 µg/mL
IC50, pseudovirus neutralization [38]: > 50 µg/mL
IC80, pseudovirus neutralization [39]: 0.012 µg/mL
IC50, pseudovirus neutralization [40]: 1.52 µg/mL
IC80, pseudovirus neutralization [41]: 0.011 µg/mL
IC50, pseudovirus neutralization [42]: > 50 µg/mL
IC50, pseudovirus neutralization [43]: > 50 µg/mL
IC80, pseudovirus neutralization [44]: 0.011 µg/mL
IC80, pseudovirus neutralization [45]: 0.195 µg/mL
IC80, pseudovirus neutralization [46]: 4.25 µg/mL
IC50, pseudovirus neutralization [47]: > 50 µg/mL
IC50, pseudovirus neutralization [48]: 0.003 µg/mL
IC80, pseudovirus neutralization [49]: 0.017 µg/mL

B3: ePGT121.15.H2.L1 (antibody, V domains shown)
VH: QMQLQESGPGLVKPGETLSLTCSVSGASISSSYWSWLRETPGKGLEWIGYTHHSGDTNYAPSLKSRVHLGLHPSKNQVSLSLTSVTAADTAVYYCARTLHGRRIYGVVAFNEWFTYFYWEVWGKGTQVTVSS
VL: SDISVAPGETVRISCGGESIGSRAVQWYQHRAGQAPKLIIYNNQDRPPGIPERFSGSPDIDFGTTATLTITNVEAGDEATYYCHIWDSRRPTNWVFGGGTTLTVL
neutralization (Table 6 value) [3]: 0.00312
neutralization (Table 6 value) [45]: 0.00464
